# Assays:
# [1] = target: human SIRPβ1v2, extracellular domain, Avi-FXa-Fc tag (human); experiment: SPR, captured biotinylated antigen
# [2] = target: human SIRPα1 extracellular domain 1-370, Avi-FXa-Fc tag (human); experiment: SPR, captured biotinylated antigen
# [3] = target: human SIRPαBIT, extracellular domain 1-370, Avi-FXa-Fc tag (human); experiment: SPR, captured biotinylated antigen
# [4] = target: cynomolgus monkey SIRPα, extracellular domain, Avi-FXa-Fc tag (cynomolgus monkey); experiment: SPR, captured biotinylated antigen
# cynomolgus monkey SIRPα, extracellular domain, Avi-FXa-Fc tag (cynomolgus monkey), sequence (chain, as listed by the source limits assumed): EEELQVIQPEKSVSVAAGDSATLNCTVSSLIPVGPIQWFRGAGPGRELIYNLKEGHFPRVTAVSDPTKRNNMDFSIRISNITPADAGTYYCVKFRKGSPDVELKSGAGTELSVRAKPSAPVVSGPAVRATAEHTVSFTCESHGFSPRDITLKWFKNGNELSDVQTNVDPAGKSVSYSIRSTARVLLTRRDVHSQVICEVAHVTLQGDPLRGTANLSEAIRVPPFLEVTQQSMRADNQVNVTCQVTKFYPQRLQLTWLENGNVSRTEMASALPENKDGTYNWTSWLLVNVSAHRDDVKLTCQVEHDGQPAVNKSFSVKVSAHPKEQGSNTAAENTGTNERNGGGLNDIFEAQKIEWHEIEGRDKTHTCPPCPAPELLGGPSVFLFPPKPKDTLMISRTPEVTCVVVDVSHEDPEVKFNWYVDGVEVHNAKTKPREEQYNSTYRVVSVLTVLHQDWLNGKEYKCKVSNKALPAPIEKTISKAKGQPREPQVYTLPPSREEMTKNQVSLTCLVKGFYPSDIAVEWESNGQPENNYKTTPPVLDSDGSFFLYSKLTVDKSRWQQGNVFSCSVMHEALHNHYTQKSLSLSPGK
# [5] = target: human SIRPβ1v1, extracellular domain, Avi-FXa-Fc tag (human); experiment: SPR, captured biotinylated antigen
# [6] = target: human SIRPγ, extracellular domain, Avi-FXa-Fc tag (human); experiment: SPR, captured biotinylated antigen
# human SIRPγ, extracellular domain, Avi-FXa-Fc tag (human), sequence (chain, as listed by the source limits assumed): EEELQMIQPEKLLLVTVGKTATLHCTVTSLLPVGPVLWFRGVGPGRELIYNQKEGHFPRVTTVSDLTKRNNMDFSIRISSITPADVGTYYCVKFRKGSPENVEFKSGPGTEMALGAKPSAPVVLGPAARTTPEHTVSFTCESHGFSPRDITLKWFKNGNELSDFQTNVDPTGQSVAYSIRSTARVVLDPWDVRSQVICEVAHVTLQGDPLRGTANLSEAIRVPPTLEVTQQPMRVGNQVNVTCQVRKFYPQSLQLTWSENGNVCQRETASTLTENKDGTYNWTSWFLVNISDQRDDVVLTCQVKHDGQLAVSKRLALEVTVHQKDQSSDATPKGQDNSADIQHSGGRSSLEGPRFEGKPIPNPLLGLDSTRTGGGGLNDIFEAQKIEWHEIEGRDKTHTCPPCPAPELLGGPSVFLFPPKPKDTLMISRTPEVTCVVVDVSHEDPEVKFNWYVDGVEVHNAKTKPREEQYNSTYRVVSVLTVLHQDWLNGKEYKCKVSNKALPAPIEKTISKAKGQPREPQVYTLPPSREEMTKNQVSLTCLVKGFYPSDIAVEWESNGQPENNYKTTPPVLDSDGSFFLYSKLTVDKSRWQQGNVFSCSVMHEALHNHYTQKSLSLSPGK
# [7] = target: human SIRPβ1v1, AVI-tagged, biotinylated, monomeric form (human) (UniProt O00241); experiment: SPR, captured monomeric antigen
# human SIRPβ1v1, AVI-tagged, biotinylated, monomeric form (human), sequence (O00241 30-371): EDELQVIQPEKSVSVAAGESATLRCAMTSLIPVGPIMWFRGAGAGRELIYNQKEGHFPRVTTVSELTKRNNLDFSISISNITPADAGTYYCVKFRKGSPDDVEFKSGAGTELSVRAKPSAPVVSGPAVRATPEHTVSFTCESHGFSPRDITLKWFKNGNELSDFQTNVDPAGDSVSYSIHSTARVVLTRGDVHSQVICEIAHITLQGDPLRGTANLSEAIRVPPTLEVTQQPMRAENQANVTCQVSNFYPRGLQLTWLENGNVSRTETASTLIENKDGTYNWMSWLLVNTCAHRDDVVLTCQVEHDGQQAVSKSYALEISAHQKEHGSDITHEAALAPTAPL
# [8] = target: human SIRPβ1v2, AVI-tagged, biotinylated, monomeric form (human) (UniProt Q5TFQ8); experiment: SPR, captured monomeric antigen
# human SIRPβ1v2, AVI-tagged, biotinylated, monomeric form (human), sequence (Q5TFQ8 30-371): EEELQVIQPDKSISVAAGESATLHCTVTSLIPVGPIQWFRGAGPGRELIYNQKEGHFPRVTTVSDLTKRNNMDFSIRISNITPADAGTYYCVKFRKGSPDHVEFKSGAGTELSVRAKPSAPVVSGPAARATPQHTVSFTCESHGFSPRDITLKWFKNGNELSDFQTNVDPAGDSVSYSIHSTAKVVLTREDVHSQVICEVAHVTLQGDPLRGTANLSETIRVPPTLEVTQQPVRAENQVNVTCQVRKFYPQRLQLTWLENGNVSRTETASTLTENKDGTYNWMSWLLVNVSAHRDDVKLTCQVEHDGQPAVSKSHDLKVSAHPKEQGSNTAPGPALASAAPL
# [9] = target: human SIRPαBIT expressed on cells (human) (UniProt P78324); experiment: flow cytometry, ExpiCHO-S cells
# human SIRPαBIT expressed on cells (human), sequence (P78324 31-504 limits assumed): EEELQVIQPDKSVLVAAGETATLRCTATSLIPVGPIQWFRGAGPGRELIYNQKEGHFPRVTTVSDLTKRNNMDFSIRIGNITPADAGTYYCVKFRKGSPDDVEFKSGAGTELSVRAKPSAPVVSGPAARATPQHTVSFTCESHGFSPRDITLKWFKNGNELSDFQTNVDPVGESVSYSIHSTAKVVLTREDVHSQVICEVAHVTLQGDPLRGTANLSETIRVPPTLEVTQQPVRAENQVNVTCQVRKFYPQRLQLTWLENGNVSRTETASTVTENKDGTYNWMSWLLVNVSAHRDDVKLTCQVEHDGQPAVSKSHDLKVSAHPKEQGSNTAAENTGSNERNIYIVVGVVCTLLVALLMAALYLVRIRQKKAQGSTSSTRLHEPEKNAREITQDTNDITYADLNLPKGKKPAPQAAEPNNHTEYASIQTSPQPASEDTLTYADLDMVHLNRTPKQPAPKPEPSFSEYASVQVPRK
# [10] = target: human SIRPα1 expressed on cells (human) (UniProt P78324); experiment: flow cytometry, ExpiCHO-S cells
# human SIRPα1 expressed on cells (human), sequence (P78324 other isoform, or with tags, fused parts or gaps limits assumed): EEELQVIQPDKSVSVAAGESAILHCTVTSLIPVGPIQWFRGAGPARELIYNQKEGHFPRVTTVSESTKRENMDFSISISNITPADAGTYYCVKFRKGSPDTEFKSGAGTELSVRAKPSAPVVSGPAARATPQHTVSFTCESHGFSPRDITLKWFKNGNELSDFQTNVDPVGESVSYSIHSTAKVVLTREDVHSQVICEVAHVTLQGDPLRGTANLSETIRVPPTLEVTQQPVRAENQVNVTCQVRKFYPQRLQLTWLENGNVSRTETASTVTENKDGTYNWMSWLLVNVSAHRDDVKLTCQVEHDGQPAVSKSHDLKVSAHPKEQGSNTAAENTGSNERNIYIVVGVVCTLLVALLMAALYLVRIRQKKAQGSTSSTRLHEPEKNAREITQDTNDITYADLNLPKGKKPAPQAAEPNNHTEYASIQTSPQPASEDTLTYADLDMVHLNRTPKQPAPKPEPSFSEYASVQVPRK
# [11] = target: cynomolgus monkey SIRPα expressed on ExpiCHO-S cells (cynomolgus monkey); experiment: flow cytometry, ExpiCHO-S cells
# [12] = target: human SIRPαBIT expressed on cells (human) (UniProt P78324); experiment: flow cytometry, U937 cells
# human SIRPαBIT, extracellular domain 1-370, Avi-FXa-Fc tag (human), sequence (chain, as listed by the source limits assumed): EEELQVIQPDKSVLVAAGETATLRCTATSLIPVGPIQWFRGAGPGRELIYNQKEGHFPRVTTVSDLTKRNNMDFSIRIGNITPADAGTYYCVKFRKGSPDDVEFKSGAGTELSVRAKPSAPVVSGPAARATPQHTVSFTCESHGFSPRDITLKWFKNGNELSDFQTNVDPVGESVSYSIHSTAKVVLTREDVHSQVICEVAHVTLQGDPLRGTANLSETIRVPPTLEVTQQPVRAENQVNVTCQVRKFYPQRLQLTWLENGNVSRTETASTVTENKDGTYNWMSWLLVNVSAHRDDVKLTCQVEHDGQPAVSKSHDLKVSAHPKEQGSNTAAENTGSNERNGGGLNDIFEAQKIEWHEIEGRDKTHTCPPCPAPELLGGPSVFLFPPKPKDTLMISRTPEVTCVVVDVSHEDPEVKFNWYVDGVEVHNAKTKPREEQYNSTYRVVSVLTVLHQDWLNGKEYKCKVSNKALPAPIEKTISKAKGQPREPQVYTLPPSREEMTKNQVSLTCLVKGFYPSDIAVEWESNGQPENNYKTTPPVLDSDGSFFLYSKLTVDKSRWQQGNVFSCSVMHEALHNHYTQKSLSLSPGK
# human SIRPβ1v2, extracellular domain, Avi-FXa-Fc tag (human), sequence (chain, as listed by the source limits assumed): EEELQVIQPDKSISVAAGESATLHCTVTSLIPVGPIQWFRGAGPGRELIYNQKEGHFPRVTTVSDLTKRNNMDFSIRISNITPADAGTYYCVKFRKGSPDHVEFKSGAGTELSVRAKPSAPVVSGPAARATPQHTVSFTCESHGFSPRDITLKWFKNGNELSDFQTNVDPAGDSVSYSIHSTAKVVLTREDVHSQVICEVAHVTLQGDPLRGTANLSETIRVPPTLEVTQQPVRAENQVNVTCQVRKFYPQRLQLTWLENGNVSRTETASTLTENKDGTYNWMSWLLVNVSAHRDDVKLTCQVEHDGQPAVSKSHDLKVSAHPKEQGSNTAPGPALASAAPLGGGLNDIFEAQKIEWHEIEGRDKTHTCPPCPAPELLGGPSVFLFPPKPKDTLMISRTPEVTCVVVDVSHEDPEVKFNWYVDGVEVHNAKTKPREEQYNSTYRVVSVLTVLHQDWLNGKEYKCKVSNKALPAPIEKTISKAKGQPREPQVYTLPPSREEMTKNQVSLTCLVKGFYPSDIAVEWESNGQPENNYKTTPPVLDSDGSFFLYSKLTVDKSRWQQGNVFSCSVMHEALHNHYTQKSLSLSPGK
# human SIRPα1 extracellular domain 1-370, Avi-FXa-Fc tag (human), sequence (chain, as listed by the source limits assumed): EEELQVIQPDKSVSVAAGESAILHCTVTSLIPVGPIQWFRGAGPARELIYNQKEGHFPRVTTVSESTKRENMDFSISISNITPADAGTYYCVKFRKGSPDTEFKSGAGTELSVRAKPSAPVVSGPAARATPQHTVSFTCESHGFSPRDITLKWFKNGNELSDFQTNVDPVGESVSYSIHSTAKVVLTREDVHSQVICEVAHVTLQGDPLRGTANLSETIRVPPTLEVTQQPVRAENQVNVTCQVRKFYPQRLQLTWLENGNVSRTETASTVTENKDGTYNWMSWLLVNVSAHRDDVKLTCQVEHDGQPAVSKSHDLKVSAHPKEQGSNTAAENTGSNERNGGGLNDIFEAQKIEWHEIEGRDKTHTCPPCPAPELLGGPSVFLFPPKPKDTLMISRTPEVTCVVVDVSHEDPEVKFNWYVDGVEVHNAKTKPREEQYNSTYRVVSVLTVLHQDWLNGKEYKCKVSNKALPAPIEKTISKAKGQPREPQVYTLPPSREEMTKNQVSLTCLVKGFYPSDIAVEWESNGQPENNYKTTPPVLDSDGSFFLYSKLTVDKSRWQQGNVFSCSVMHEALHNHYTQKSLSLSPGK
substance,measurement,setting,value
"SE5A5 (mouse IgG1κ, Biolegend, purified anti-human CD172a/b) (antibody)",Kd,[1],0.287 nM
same,Kd,[2],0.0154 nM
same,Kd,[3],0.798 nM
same,Kd,[4],1.8 nM
same,Kd,[5],0.0382 nM
same,Kd,[6],2.66 nM
same,Kd,[7],0.0631 nM
same,Kd,[8],0.358 nM
same,EC50,[9],0.62 µg/mL
same,EC50,[10],0.09 µg/mL
same,EC50,[11],0.05 µg/mL
same,EC50,[12],1.48 µg/mL

# From patent US20210388107A1
